The results in this text go back to US20200317768A1 (published 2020).

Common to all, as to experiment: SPR (BIACORE), antibody captured, FcgR analyte
For test [1], the target named is T1, cynomolgus monkey FcγRIIa3 extracellular domain with C-terminal His-tag (cynomolgus monkey).
T1 construct: also called cyno FcgRIIa3; cynoFcγRIIa3
T1 chain: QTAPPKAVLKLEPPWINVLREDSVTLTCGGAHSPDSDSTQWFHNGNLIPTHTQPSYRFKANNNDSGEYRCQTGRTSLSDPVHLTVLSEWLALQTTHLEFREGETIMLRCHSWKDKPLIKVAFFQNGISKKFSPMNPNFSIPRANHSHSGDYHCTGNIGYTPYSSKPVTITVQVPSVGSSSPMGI

Test [2] deals with T2, human FcγRIIaH extracellular domain with C-terminal His-tag (human, UniProt P12318 34-217).
T2 construct: also called human FcgRIIaH; FcγRIIa (type H)
T2 sequence: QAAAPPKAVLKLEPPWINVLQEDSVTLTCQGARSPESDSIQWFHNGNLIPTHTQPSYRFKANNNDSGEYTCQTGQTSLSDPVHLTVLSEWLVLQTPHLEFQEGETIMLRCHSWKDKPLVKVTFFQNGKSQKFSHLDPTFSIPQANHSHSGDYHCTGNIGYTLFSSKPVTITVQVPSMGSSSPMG

Test [3] has as its target T3, cynomolgus monkey FcγRIIb extracellular domain with C-terminal His-tag (cynomolgus monkey).
T3 construct: also called cyno FcgRIIb; cynoFcγRIIb
T3 chain: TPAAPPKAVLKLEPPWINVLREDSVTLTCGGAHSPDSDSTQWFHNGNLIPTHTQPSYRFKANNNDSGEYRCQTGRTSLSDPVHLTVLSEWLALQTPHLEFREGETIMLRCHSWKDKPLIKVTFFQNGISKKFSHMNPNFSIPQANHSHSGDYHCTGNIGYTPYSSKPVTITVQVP

Test [4] has as its target T4, human FcγRIIaR extracellular domain with C-terminal His-tag (human, UniProt P12318 34-217).
T4 construct: also called human FcgRIIaR; FcγRIIa (type R)
T4 chain: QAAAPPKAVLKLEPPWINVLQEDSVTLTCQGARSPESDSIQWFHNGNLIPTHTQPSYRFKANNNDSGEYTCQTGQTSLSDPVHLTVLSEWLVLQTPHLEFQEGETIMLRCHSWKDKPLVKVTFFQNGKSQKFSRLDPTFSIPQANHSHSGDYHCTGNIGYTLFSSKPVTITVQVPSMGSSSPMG

The target in test [5] is T5, cynomolgus monkey FcγRIIIaS extracellular domain with C-terminal His-tag (cynomolgus monkey, UniProt Q8SPW2 21-206 at identity 1.00)).
T5 construct: also called cyno FcgRIIIaS; cynoFcγRIIIaS
T5 chain: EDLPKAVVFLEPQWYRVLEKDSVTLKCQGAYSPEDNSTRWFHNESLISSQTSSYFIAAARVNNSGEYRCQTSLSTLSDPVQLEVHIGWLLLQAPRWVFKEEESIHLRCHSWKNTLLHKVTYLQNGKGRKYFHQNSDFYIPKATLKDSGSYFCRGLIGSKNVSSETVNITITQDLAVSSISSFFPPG

Test [6] has as its target T6, cynomolgus monkey FcγRIIa2 extracellular domain with C-terminal His-tag (cynomolgus monkey).
T6 construct: also called cyno FcgRIIa2; cynoFcγRIIa2
T6 chain: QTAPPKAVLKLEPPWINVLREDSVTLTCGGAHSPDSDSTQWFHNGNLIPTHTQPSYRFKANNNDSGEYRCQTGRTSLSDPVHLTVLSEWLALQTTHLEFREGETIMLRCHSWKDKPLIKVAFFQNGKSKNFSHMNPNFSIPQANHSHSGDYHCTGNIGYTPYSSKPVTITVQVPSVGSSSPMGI

For test [7], the target named is T7, human FcγRIIb extracellular domain with C-terminal His-tag (human, UniProt P31994 43-217).
T7 construct: also called human FcgRIIb
T7 sequence: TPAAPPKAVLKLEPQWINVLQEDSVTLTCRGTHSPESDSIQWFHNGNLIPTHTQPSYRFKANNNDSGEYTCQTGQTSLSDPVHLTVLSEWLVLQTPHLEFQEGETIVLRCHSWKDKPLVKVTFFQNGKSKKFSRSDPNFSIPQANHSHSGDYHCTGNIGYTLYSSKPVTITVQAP

B1: M103205H795-MY387/M103202L889-SK1 (antibody, human IgG1, kappa)
heavy: QVTLKESGPVLVKPTETLTLTCTVSGIDLSHDDISWVRQAPGKGLEWVGIISYAGSTYYASWAKGRLTISKDTSKNQVVLTMTNMDPVDTATYYCARGVPAYSHGGDLWGQGTLVTVSSASTKGPSVFPLAPSSKSTSGGTAALGCLVKDYFPEPVTVSWNSGALTSGVHTFPAVLQSSGLYSLSSVVTVPSSSLGTQTYICNVNHKPSNTKVDKKVEPKSCDKTHTCPPCPAPELLTGPVVFLFPPKPKDTLMISRTPEVTCVVVDVSDEDPEVKFNWYVDGVEVHNAKTKPREEQYNSTYRVVSVLTVLHQDWLNGKEYKCKVSNKALPKPIEKTISKAKGQPREPQVYTLPPSREEMTKNQVSLTCLVKGFYPSDIAVEWESNGQPENNYKTTPPVLDSDGSFFLYSKLTVDKSRWQQGNVFSCSVMHEALHNHYTQKSLSLSP
light: DIVMTQSPATLSLSPGERATLSCTSSQSVYHANWLSWFQQKPGQPPKLLIYWASTLAYGVPSRFSGSGSGTDFTLTISSLQPEDAATYYCAGGYGGGRYAFGQGTKVEIKRTVAAPSVFIFPPSDEQLKSGTASVVCLLNNFYPREAKVQWKVDNALQSGNSQESVTEQDSKDSTYSLSSTLTLSKADYEKHKVYACEVTHQGLSSPVTKSFNRGEC
notes: Substitutions introduced into M103205H795-SG1, expressed with M103202L889-SK1 as light chain; EU numbering
Turning to B1, the Kd in test [1] turned out to be 1400 nM; in test [2], 340 nM; in test [3], 830 nM; in test [4] it was 200 nM; in test [5], 2500 nM; in test [6], 19000 nM. In test [7], binding was put at a Kd of 1600 nM.

B2: M103205H795-MY389/M103202L889-SK1 (antibody, human IgG1, kappa)
heavy: QVTLKESGPVLVKPTETLTLTCTVSGIDLSHDDISWVRQAPGKGLEWVGIISYAGSTYYASWAKGRLTISKDTSKNQVVLTMTNMDPVDTATYYCARGVPAYSHGGDLWGQGTLVTVSSASTKGPSVFPLAPSSKSTSGGTAALGCLVKDYFPEPVTVSWNSGALTSGVHTFPAVLQSSGLYSLSSVVTVPSSSLGTQTYICNVNHKPSNTKVDKKVEPKSCDKTHTCPPCPAPELLTGPLVFLFPPKPKDTLMISRTPEVTCVVVDVSDEDPEVKFNWYVDGVEVHNAKTKPREEQYNSTYRVVSVLTVLHQDWLNGKEYKCKVSNKALPKPIEKTISKAKGQPREPQVYTLPPSREEMTKNQVSLTCLVKGFYPSDIAVEWESNGQPENNYKTTPPVLDSDGSFFLYSKLTVDKSRWQQGNVFSCSVMHEALHNHYTQKSLSLSP
light: DIVMTQSPATLSLSPGERATLSCTSSQSVYHANWLSWFQQKPGQPPKLLIYWASTLAYGVPSRFSGSGSGTDFTLTISSLQPEDAATYYCAGGYGGGRYAFGQGTKVEIKRTVAAPSVFIFPPSDEQLKSGTASVVCLLNNFYPREAKVQWKVDNALQSGNSQESVTEQDSKDSTYSLSSTLTLSKADYEKHKVYACEVTHQGLSSPVTKSFNRGEC
notes: as for B1
For B2, the dissociation constant Kd was 1400 nM in test [1]; 270 nM in test [2]; 700 nM in test [3]; 190 nM in test [4]; 1500 nM in test [5]; 16000 nM in test [6]. Further, binding in test [7] was characterised by a dissociation constant (Kd) of 1100 nM.

B3: M103205H795-MY392/M103202L889-SK1 (antibody, human IgG1, kappa)
heavy: QVTLKESGPVLVKPTETLTLTCTVSGIDLSHDDISWVRQAPGKGLEWVGIISYAGSTYYASWAKGRLTISKDTSKNQVVLTMTNMDPVDTATYYCARGVPAYSHGGDLWGQGTLVTVSSASTKGPSVFPLAPSSKSTSGGTAALGCLVKDYFPEPVTVSWNSGALTSGVHTFPAVLQSSGLYSLSSVVTVPSSSLGTQTYICNVNHKPSNTKVDKKVEPKSCDKTHTCPPCPAPELLTGPSVFLFPPKPKDTLMISRTPEVTCVVVDVSDEDPEVKFNWYVDGVEVHNAKTKPREEQYNLTYRVVSVLTVLHQDWLNGKEYKCKVSNKALPKPIEKTISKAKGQPREPQVYTLPPSREEMTKNQVSLTCLVKGFYPSDIAVEWESNGQPENNYKTTPPVLDSDGSFFLYSKLTVDKSRWQQGNVFSCSVMHEALHNHYTQKSLSLSP
light: DIVMTQSPATLSLSPGERATLSCTSSQSVYHANWLSWFQQKPGQPPKLLIYWASTLAYGVPSRFSGSGSGTDFTLTISSLQPEDAATYYCAGGYGGGRYAFGQGTKVEIKRTVAAPSVFIFPPSDEQLKSGTASVVCLLNNFYPREAKVQWKVDNALQSGNSQESVTEQDSKDSTYSLSSTLTLSKADYEKHKVYACEVTHQGLSSPVTKSFNRGEC
notes: as for B1
On to B3, for which the Kd in test [1] was found to be 3900 nM; in test [2] it was 430 nM; in test [3] it was 700 nM; in test [4] it was 410 nM; in test [5] it was 4000 nM; in test [6], 2300 nM. The molecule also displayed a Kd in test [7] of 1700 nM.

B4: M103205H795-MY388/M103202L889-SK1 (antibody, human IgG1, kappa)
heavy: QVTLKESGPVLVKPTETLTLTCTVSGIDLSHDDISWVRQAPGKGLEWVGIISYAGSTYYASWAKGRLTISKDTSKNQVVLTMTNMDPVDTATYYCARGVPAYSHGGDLWGQGTLVTVSSASTKGPSVFPLAPSSKSTSGGTAALGCLVKDYFPEPVTVSWNSGALTSGVHTFPAVLQSSGLYSLSSVVTVPSSSLGTQTYICNVNHKPSNTKVDKKVEPKSCDKTHTCPPCPAPELLTGPIVFLFPPKPKDTLMISRTPEVTCVVVDVSDEDPEVKFNWYVDGVEVHNAKTKPREEQYNSTYRVVSVLTVLHQDWLNGKEYKCKVSNKALPKPIEKTISKAKGQPREPQVYTLPPSREEMTKNQVSLTCLVKGFYPSDIAVEWESNGQPENNYKTTPPVLDSDGSFFLYSKLTVDKSRWQQGNVFSCSVMHEALHNHYTQKSLSLSP
light: DIVMTQSPATLSLSPGERATLSCTSSQSVYHANWLSWFQQKPGQPPKLLIYWASTLAYGVPSRFSGSGSGTDFTLTISSLQPEDAATYYCAGGYGGGRYAFGQGTKVEIKRTVAAPSVFIFPPSDEQLKSGTASVVCLLNNFYPREAKVQWKVDNALQSGNSQESVTEQDSKDSTYSLSSTLTLSKADYEKHKVYACEVTHQGLSSPVTKSFNRGEC
notes: as for B1
Take B4: the Kd amounted to 1300 nM in test [1]; 330 nM in test [2]; 760 nM in test [3]; 230 nM in test [4]; 1600 nM in test [5]; 1700 nM in test [6]. The molecule also yielded a dissociation constant (Kd) in test [7] of 1500 nM.

B5: M103205H795-MY400/M103202L889-SK1 (antibody, human IgG1, kappa)
heavy: QVTLKESGPVLVKPTETLTLTCTVSGIDLSHDDISWVRQAPGKGLEWVGIISYAGSTYYASWAKGRLTISKDTSKNQVVLTMTNMDPVDTATYYCARGVPAYSHGGDLWGQGTLVTVSSASTKGPSVFPLAPSSKSTSGGTAALGCLVKDYFPEPVTVSWNSGALTSGVHTFPAVLQSSGLYSLSSVVTVPSSSLGTQTYICNVNHKPSNTKVDKKVEPKSCDKTHTCPPCPAPELLTGPSVFLFPPKPKDTLMISRTPEVTCVVVDVSDEDPEVKFNWYVDGVEVHNAKTKPREEQYNSTYRVVSVLTVLHQDWLNGKEYKCKVSNKALPKEIEKTISKAKGQPREPQVYTLPPSREEMTKNQVSLTCLVKGFYPSDIAVEWESNGQPENNYKTTPPVLDSDGSFFLYSKLTVDKSRWQQGNVFSCSVMHEALHNHYTQKSLSLSP
light: DIVMTQSPATLSLSPGERATLSCTSSQSVYHANWLSWFQQKPGQPPKLLIYWASTLAYGVPSRFSGSGSGTDFTLTISSLQPEDAATYYCAGGYGGGRYAFGQGTKVEIKRTVAAPSVFIFPPSDEQLKSGTASVVCLLNNFYPREAKVQWKVDNALQSGNSQESVTEQDSKDSTYSLSSTLTLSKADYEKHKVYACEVTHQGLSSPVTKSFNRGEC
notes: as for B1
Consider B5, for which the Kd was 3800 nM in test [1]; 420 nM in test [2]; 630 nM in test [3]; 740 nM in test [4]; 24000 nM in test [5]; 2200 nM in test [6]. In test [7], this molecule gave a Kd of 2500 nM.
